Reference: patent publication US12459997B2, “Compounds and methods targeting interleukin-19” (Eli Lilly and Company, priority 2018, dated 2025)

Tests used:
Ps0 patients [1] = assay: Ps0 study in anti-TNFα treatment groups: serum IL-19 and PASI; type: in vivo, human; conditions: for IL-19 serum levels (geometric mean) / % of patients with serum IL-19 concentration ≤ 21 pg/mL / % patients with serum IL-19 concentration ≤ 21 pg/mL achieving at least PASI 75 / % patients with serum IL-19 concentration ≤ 21 pg/mL not achieving at least PASI 75: 50 mg biweekly subcutaneous
Text: (§1) According to an exemplified embodiment, a sandwich ELISA assay for the sensitive detection of IL-19 is provided herein. According to an exemplified embodiment, a first IL-19 antibody (selected from Table 1, 2 or 3) is utilized as an IL-19 capture antibody and a second IL-19 antibody (selected from Table 1, 2 or 3) is utilized as an IL-19 reporter antibody. […] According to some embodiments, one milligram of the first IL-19 antibody (the capture antibody) is biotinylated using Pierce biotinylation kit (Cat #) and one milligram of the second IL-19 antibody (the reporter antibody) is labeled with ruthenium using MesoScale Discovery (MSD) kit for electrochemiluminescent (ECL) detection. According to such embodiment, labeled antibodies are evaluated using MALDI-TOF to ensure suitable labeling, and then diluted in 50% glycerol and stored at −20° C. prior to use.
(§2) Streptavidin-coated 96-well MSD plates are washed three times with TBST (Tris buffered saline containing 10 mmol/L Tris pH 7.40, 150 mmol/L NaCl with 1 mL Tween 20/L) and then blocked with TBS-T plus 1% BSA for 1 hour at room temperature. Plates are again washed and wells are then incubated with biotinylated IL-19 capture antibody (1 mg/L) for 1 hour. Thereafter, plates are again washed prior to patient sample testing.
(§3) During patient sample testing, a standard curve is generated using 50 μL of recombinant human IL-19 control standard (serially diluted IL-19 recombinant protein ranging from 100-0.0001 ng/L, and including a zero blank, in assay buffer of 50 mmol/L HEPES, pH 7.40, 150 mmol/L NaCl, 10 mL/L Triton X-100, 5 mmol/L EDTA, and 5 mmol/L EGTA). […] Patient samples (which, according to the present invention, may include blood, serum or plasma) are diluted 1:4 in assay buffer and added to respective wells. The plate is incubated overnight at 4° C. Following incubation, wells are aspirated and washed 3 times with TBST. Thereafter, 50 μL of ruthenium-labeled IL-19 detection antibody (0.5 mg/L) is added to the wells for a 1-hour incubation at room temperature. Following incubation, wells are aspirated and washed 3 times with TBST. Thereafter, 150 μl of 2×MSD read buffer is added. Ruthenium electrochemiluminescence in the wells is detected using a MSD Sector 6000 plate reader. Data is analyzed and IL-19 MSD immunoassay calibration curve fitting is performed using MesoScale Discovery software. SAS® software version 9.4 (PROC MIXED) is used for assessing treatment effects on IL-19 levels using a mixed effects model with an unstructured covariance matrix and log10 transformed IL-19 concentrations (SAS. Version 9.4 for UNIX; SAS Institute Inc.: Cary, N.C., 2016). Statistical analysis is generated with the ggplot and pROC packages using R version 3.3.3 statistical computing environment (www.R-project.org, Vienna, Austria, 2017).
A study of IL-19 levels, in serum of 35 Ps0 patients that were complete responders when treated with the FDA approved TNFα antagonist, entanercept, is performed. Treatment groups of 50 mg of etanercept (n=35) administered biweekly or placebo are compared. Administration of both treatment groups is subcutaneous. […] IL-19 levels are assessed for prognostic value with PASI improvement at weeks 4 and 12. Serum IL-19 concentration levels are presented in Table 11; prognostic values at week 4 showing correlations of IL-19 serum levels and PASI in psoriasis patients (21 ng/L indicates the upper limit of the normal range of IL-19 in healthy subjects) is presented in Table 12; prognostic values at week 12 showing correlations of IL-19 serum levels and PASI in psoriasis patients (21 ng/L indicates the upper limit of the normal range of IL-19 in healthy subjects) is presented in Table 13.

Ps0 patients [2] = assay: Ps0 study in anti-IL-23 treatment groups: serum IL-19 and PASI; type: in vivo, human
Text: as §1, §2, §3
A study of IL-19 levels, in serum of Ps0 patients treated with a therapeutic antibody targeting IL-23, mirikizumab, is performed. […] Administration of each treatment group, as a single subcutaneous dose, occurs at day 0. […] IL-19 levels are also assessed for prognostic value with PASI improvement between visits 2 and 12. Serum IL-19 concentration levels are presented in Table 14; a comparative of serum levels at week 8 is presented in Table 15; and prognostic values at week 8 showing correlations of IL-19 serum levels and PASI in psoriasis patients (21 ng/L, indicates the upper limit of the normal range of IL-19 in healthy subjects) are presented in Table 16.

etanercept
IL-19 serum levels (geometric mean) (Ps0 patients [1]; Week 0 (baseline)): 98.2 pg/mL
IL-19 serum levels (geometric mean) (Ps0 patients [1]; Week 1): 42.3 pg/mL
% of patients with serum IL-19 concentration ≤ 21 pg/mL (Ps0 patients [1]; week 4): 37.9% (44/116)
% patients with serum IL-19 concentration ≤ 21 pg/mL achieving at least PASI 75 (Ps0 patients [1]; week 4): 22.7% (10/44)
% patients with serum IL-19 concentration ≤ 21 pg/mL not achieving at least PASI 75 (Ps0 patients [1]; week 4): 77.3% (34/44)
IL-19 serum levels (geometric mean) (Ps0 patients [1]; week 4): 24.3 pg/mL
% of patients with serum IL-19 concentration ≤ 21 pg/mL (Ps0 patients [1]; week 12): 42.9% (69/161)
% patients with serum IL-19 concentration ≤ 21 pg/mL achieving at least PASI 75 (Ps0 patients [1]; week 12): 49.3% (34/69)
% patients with serum IL-19 concentration ≤ 21 pg/mL not achieving at least PASI 75 (Ps0 patients [1]; week 12): 50.7% (35/69)
IL-19 serum levels (geometric mean) (Ps0 patients [1]; week 12): 14.2 pg/mL
median reduction in serum IL-19 (Ps0 patients [1]; after 1 week): greater than 40 pg/mL
median reduction in serum IL-19 (Ps0 patients [1]; at week 4): > 70 pg/mL

B1: mirikizumab (antibody, chains of the INN, looked up, V domains shown)
VH: QVQLVQSGAEVKKPGSSVKVSCKASGYKFTRYVMHWVRQAPGQGLEWMGYINPYNDGTNYNEKFKGRVTITADKSTSTAYMELSSLRSEDTAVYYCARNWDTGLWGQGTTVTVSS
VL: DIQMTQSPSSLSASVGDRVTITCKASDHILKFLTWYQQKPGKAPKLLIYGATSLETGVPSRFSGSGSGTDFTLTISSLQPEDFATYYCQMYWSTPFTFGGGTKVEIK
notes: therapeutic antibody targeting IL-23
IL-19 (geometric mean) serum levels (Ps0 patients [2]; 5 mg single subcutaneous dose, Day 1 (baseline)): 16.2 pg/mL
IL-19 (geometric mean) serum levels (Ps0 patients [2]; 5 mg single subcutaneous dose, Day 15): 13.9 pg/mL
IL-19 (geometric mean) serum levels (Ps0 patients [2]; 5 mg single subcutaneous dose, Day 29): 10.4 pg/mL
IL-19 (geometric mean) serum levels (Ps0 patients [2]; 5 mg single subcutaneous dose, Day 57): 13.2 pg/mL
IL-19 (geometric mean) serum levels (Ps0 patients [2]; 5 mg single subcutaneous dose, Day 71): 14.5 pg/mL
IL-19 (geometric mean) serum levels (Ps0 patients [2]; 20 mg single subcutaneous dose, Day 1 (baseline)): 37.2 pg/mL
IL-19 (geometric mean) serum levels (Ps0 patients [2]; 20 mg single subcutaneous dose, Day 15): 27.2 pg/mL
IL-19 (geometric mean) serum levels (Ps0 patients [2]; 20 mg single subcutaneous dose, Day 29): 25.4 pg/mL
IL-19 (geometric mean) serum levels (Ps0 patients [2]; 20 mg single subcutaneous dose, Day 57): 33.5 pg/mL
IL-19 (geometric mean) serum levels (Ps0 patients [2]; 20 mg single subcutaneous dose, Day 71): 28.4 pg/mL
IL-19 (geometric mean) serum levels (Ps0 patients [2]; 60 mg single subcutaneous dose, Day 1 (baseline)): 49.8 pg/mL
IL-19 (geometric mean) serum levels (Ps0 patients [2]; 60 mg single subcutaneous dose, Day 15): 9.0 pg/mL
IL-19 (geometric mean) serum levels (Ps0 patients [2]; 60 mg single subcutaneous dose, Day 29): 10.8 pg/mL
IL-19 (geometric mean) serum levels (Ps0 patients [2]; 60 mg single subcutaneous dose, Day 57): 11.9 pg/mL
IL-19 (geometric mean) serum levels (Ps0 patients [2]; 60 mg single subcutaneous dose, Day 71): 10.9 pg/mL
IL-19 (geometric mean) serum levels (Ps0 patients [2]; 120 mg single subcutaneous dose, Day 1 (baseline)): 52.4 pg/mL
IL-19 (geometric mean) serum levels (Ps0 patients [2]; 120 mg single subcutaneous dose, Day 15): 26.6 pg/mL
IL-19 (geometric mean) serum levels (Ps0 patients [2]; 120 mg single subcutaneous dose, Day 29): 25.2 pg/mL
IL-19 (geometric mean) serum levels (Ps0 patients [2]; 120 mg single subcutaneous dose, Day 57): 22.2 pg/mL
IL-19 (geometric mean) serum levels (Ps0 patients [2]; 120 mg single subcutaneous dose, Day 71): 18.2 pg/mL
IL-19 (geometric mean) serum levels (Ps0 patients [2]; 200 mg single subcutaneous dose, Day 1 (baseline)): 69.6 pg/mL
IL-19 (geometric mean) serum levels (Ps0 patients [2]; 200 mg single subcutaneous dose, Day 15): 36.0 pg/mL
IL-19 (geometric mean) serum levels (Ps0 patients [2]; 200 mg single subcutaneous dose, Day 29): 23.3 pg/mL
IL-19 (geometric mean) serum levels (Ps0 patients [2]; 200 mg single subcutaneous dose, Day 57): 21.9 pg/mL
IL-19 (geometric mean) serum levels (Ps0 patients [2]; 200 mg single subcutaneous dose, Day 71): 22.5 pg/mL
IL-19 (geometric mean) serum levels (Ps0 patients [2]; 300 mg, Week 0 (Baseline)): 106.5 pg/mL
IL-19 (geometric mean) serum levels (Ps0 patients [2]; 300 mg, Week 8 (End of induction)): 18.2 pg/mL
% of patients with serum IL-19 concentration ≤ 21 pg/mL (Ps0 patients [2]; 300 mg, week 8): 58.3% (28/48)
% patients with serum IL-19 concentration ≤ 21 pg/mL achieving at least PASI 75 (Ps0 patients [2]; 300 mg, week 8): 71.4% (20/28)
% patients with serum IL-19 concentration ≤ 21 pg/mL not achieving at least PASI 75 (Ps0 patients [2]; 300 mg, week 8): 28.6% (8/28)
IL-19 (geometric mean) serum levels (Ps0 patients [2]; 350 mg single subcutaneous dose, Day 1 (baseline)): 58.4 pg/mL
IL-19 (geometric mean) serum levels (Ps0 patients [2]; 350 mg single subcutaneous dose, Day 15): 35.2 pg/mL
IL-19 (geometric mean) serum levels (Ps0 patients [2]; 350 mg single subcutaneous dose, Day 29): 22.4 pg/mL
IL-19 (geometric mean) serum levels (Ps0 patients [2]; 350 mg single subcutaneous dose, Day 57): 23.7. pg/ml
IL-19 (geometric mean) serum levels (Ps0 patients [2]; 350 mg single subcutaneous dose, Day 71): 18.0 pg/mL
IL-19 (geometric mean) serum levels (Ps0 patients [2]; 600 mg single subcutaneous dose, Day 1 (baseline)): 57.3 pg/mL
IL-19 (geometric mean) serum levels (Ps0 patients [2]; 600 mg single subcutaneous dose, Day 15): 30.1 pg/mL
IL-19 (geometric mean) serum levels (Ps0 patients [2]; 600 mg single subcutaneous dose, Day 29): 21.8 pg/mL
IL-19 (geometric mean) serum levels (Ps0 patients [2]; 600 mg single subcutaneous dose, Day 57): 14.4. pg/ml
IL-19 (geometric mean) serum levels (Ps0 patients [2]; 600 mg single subcutaneous dose, Day 71): 15.8 pg/mL
